Data as given in the nanobody polyreactivity screen of Harvey et al. (2022).

Test: yeast display, Sf9 membrane polyspecificity reagent, FACS + sequencing; frameworks hold sequencing errors
How it was run: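 Sorting gates, low and high (top ~1%), were placed on anti-HA fluorescence to track expression and on streptavidin fluorescence to track reagent binding. A clone's polyreactivity label is taken from the gate it came out of. The reagent was 10% biotinylated, detergent-solubilized Sf9 membrane, applied for 1 hour at 4 °C to galactose-induced yeast display cells.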

Row | Sequence | polyreactivity (PSR sort gate)
1 | QVQLVESGGGLVQAGGILRLSCPASGRTFEYYAMGWYRQAPGKERELVASISFGGGSTYADSVKGRFTISRDNAKNTVYLQMNSLKPEDTAVYYCAATGGWYKHWFDYWGQGTQVTVSS | low polyreactivity
2 | QVQLVESGGGLVQAGGILRLTCAASGRTNTYNAMGSYRQAPGKERELVAAITWSGGSTYYADSVKGRFTISRDNAKNTVYLQMNSLKPEDTAVYYCAKEFYYSSGFDYWGQGTQVTVSS | low polyreactivity
3 | QVQLVESGGGLVQAGGILSLSCAASGSTFVGNAMGWYRPAPGKERELVATISNSGGRTYYADSVKGRFTISRDNAKNTVYLQMNSLKPEETAVYYCAADPPAFGPGYSFDYWGHGTQVTVSS | low polyreactivity
4 | QVQLVESGGGLVQAGGILSLSCADSGRIFDIYAMGWYRQAPGKERELVASISWSGDSTYYADSVKGRFTISRDNAKNTVYLQMNSLKPEDTAVYYCDAVGEDTEGYDFDYWGQGTQVTVSS | low polyreactivity
5 | QVQLVESGGGLVQAGGNLRLSCAASGLIFWYNAMGWYRQAPGKERELVAAINWSGDSTYYADSVKGRFTISRDNAKNTVYLQMNSLKPEDTAVYYCAATEQSYGYDYWGQGTQVTVSS | low polyreactivity
6 | QVQLVESGGGLVQAGGPLRLSCAASGIIFGFYAMGWYRQPPGKERELVADITSSGGSTYYADSVKGRFTISRDNAKNTVYLQINSLKPEDTAVYYCAADGVPGGPPVEGMDYWGQGTQVTVSS | low polyreactivity
7 | QVQLVESGGGLVQAGGRHRLSCAASGRTFGVYAMGWYRQAPGKEREFVGVISWSDDSTYYADSVKGRFTISRDNAKNTVSLQMNSLKPEDTAVYYCNADDYLVYSGSHYGYWGQGTQVTVSS | low polyreactivity
8 | QVQLVESGGGLVQAGGRHRLSCAASGSIFTVYTIGWYRQAPGKEREFVAAINSRGGTTYYADSVKGRFTISRDNAKNTVYLQMNSLKPEDTAVYYCAAKQRPKSYGPGHYYWGQGTQVTVSS | high polyreactivity
9 | QVQLVESGGGLVQAGGRHRLSCAPSASIFSVNAMGWYRQAPGKERELVAAISWRGASTYYADSVKGRFTISRDNPKNTVYLQMNSLKPEDTAVYYCAAKGTGGDQYYAFDYWGQGTQVTVSS | low polyreactivity
10 | QVQLVESGGGLVQAGGRLLLSCAASGGTFRVYAMGWYIQAPGKERELVASISWSSGITYYADSVKGRFTISRDNAKNTVYLQMNSLKPEDTAFYYCAAEGHVTYGAPGRLYRMGYWGQGTQVTVSS | low polyreactivity
11 | QVQLVESGGGLVQAGGRLRFSCAASGRIFYSYTMGWYRQAPGKERELVASISRSSGDTYYADSVKGRFTISRDNAKNPVYLQMNSLKPEDTAVYYWAARIKTYSKRYYWGQGTQVTVSS | high polyreactivity
12 | QVQLVESGGGLVQAGGRLRISSAASGFIFYVNAKGWYRQAPGKERELVAAISWSGGSTYYADSVKGRFTISRDNAKNTVYLQMNSLKPEDPAFYYCAAGASPYEGYDNWGQGTQVTVSS | low polyreactivity
13 | QVQLVESGGGLVQAGGRLRLICAASGFIFWKNAMGWYRQSPGKQRELVAAISTRGGSTYYADSVKGRFTISRDNAKNSVYLQMNSLKPEDTAVYYCNKEWYQYKHNYWGQGTQVSVSS | low polyreactivity
14 | QVQLVESGGGLVQAGGRLRLICAASGRTSRIYAMGWYRQAPGKWELVAAISGSGSRTYYADSVKGRFTISRDNAKNTVYFQMNSLKPEDTAVSYCNARYWYRHHPPEFDYWGQGTQVTVSS | high polyreactivity
15 | QVQLVESGGGLVQAGGRLRLICAASGSILNNYAMGWYRQAPGKERELVAAISSSGGTNYADSVKGRFTISRDNAKNTVYLQMNSLKPEDTAVYYCNADVLDGGYDYWGQGTQVTVSS | low polyreactivity
16 | QVQLVESGGGLVQAGGRLRLRCAASGSTFGYYAMGWYRQAPGKERELVAAISRSGGITYYADSVKGRFTISRDNAKNTVYLQMNSLKPEDTAVYYCAADRNRYTGEDDSWGEGTQVTVSS | low polyreactivity
17 | QVQLVESGGGLVQAGGRLRLSCAASGFIFRPYAMGWYRQAPGKERELVPTISYRGGSTDYADSVKGRFTISRDNAKNTVYLQMNSLKPEDTAVYYCNAGYNRGYYYPVFAFFPYEYWGQGTQVTVSS | low polyreactivity
18 | QVQLVESGGGLVQAGGRLRLSCAASGFTFPRYAMGWYRQAPGKERELVAAISRGGSTNYADSVKGRFTISRDNAKNTVYLQMNSLKPEDTAVYDCAKVLRRWPDPAWGMDYWGQGTQVTVSS | high polyreactivity
19 | QVQLVESGGGLVQAGGRLRLSCAASGFTFRGYAMGWYRQAPGKERELVAAITKRGGSTYYADSVKGRFTISRDNAKNTVYLQMNSLKPEDTAVYYCNKYAGQTTYDYWGQGTQVTVSS | high polyreactivity
20 | QVQLVESGGGLVQAGGRLRLSCAASGFTFTRYTMGWYRQAPGKERELVARITRSGASTYYADSVKGRFTISRDNAKNTVYLQMNSLKPEDTAVYYCAADTWSYTTRYYYWGQGTQVTVSS | high polyreactivity
21 | QVQLVESGGGLVQAGGRLRLSCAASGFTFYNYAMGWYRQAPGKERELVAAISWSGGSTHYADSVKGRFTISRDNAKNTVFLQMNSLKPEDTAVYYCAKVGVLGYYTYYYWGQGTQVTVSS | low polyreactivity
22 | QVQLVESGGGLVQAGGRLRLSCAASGFTFYWNAMGWYRQAPGKERELVAAINWRGTSTYYADSVKGRFTISRDNAKNTVYLQMNSLKPEDTAVDYCNTYVYVEYDWGQGTQVTVSS | high polyreactivity

Row | Sequence | polyreactivity (PSR sort gate)
23 | QVQLVESGGGLVQAGGRLRLSCAASGFTFYYYTMGWYRQAPGKEREVVAAITWRGGSTNYADSVKGRFTISRDNAKNTVYLQMNSLKPEDTAVYYCAAVTYWFWPGMDYWGQGTQVTVSS | low polyreactivity
24 | QVQLVESGGGLVQAGGRLRLSCAASGFTYRGNAMGWYRHAPGKERELVAAITSSDDSTYYADSVKGRFTISRDNAKITVYLQMNSLKPVDTAVYYCAAVANGYWTYEYWGQGTLVTVSS | low polyreactivity
25 | QVQLVESGGGLVQAGGRLRLSCAASGGTFHKYAMGWYRQAPGKERELVAGISRRTGTTYYADSVKGRFTISRDNAKNTVYLQMNSLKPEDTAVYYCATDWGRYSRLSKADPSDYWGQGTHVTVSS | high polyreactivity
26 | QVQLVESGGGLVQAGGRLRLSCAASGGTFYYYAMGWYRQAPGKERELVAAIRRRGGGTYSADSVKGRFTISRDNAKNTVYLQMNSLKPEDTAVYYCARDKLRSWWGDYNTYYPDDSWGQGTQVTVSS | high polyreactivity
27 | QVQLVESGGGLVQAGGRLRLSCAASGIIFDTYVMGWYRQAPGKERELVAAITRSGGRTRYADSVKGRFTISRDNAKNTVYLQMNSLKPEDTAVYYCAARIPDRQDGYGYWGQGTQVTVSS | high polyreactivity
28 | QVQLVESGGGLVQAGGRLRLSCAASGITFRTYAMGWYREAPGKERELVDAITRRGGSTYYADSVKGRFTISRDNAKNTVYLQMNSLKPEDTAVYYCAVRHNGIQASVGYDYWGQGTQVTGSS | high polyreactivity
29 | QVQLVESGGGLVQAGGRLRLSCAASGITFSGYVLGWDRPAPGKERELVAAISSSGGRTYYADSVKGRFTISRDNAKNTVYLQMNSLKPEDTAVYYCAARFLYANRYSVDYDYWGQGTQVTVSS | high polyreactivity
30 | QVQLVESGGGLVQAGGRLRLSCAASGITFYENAMGWYRQAPGKERELVAAISYSGGNTYPDSVKGRFTISRDNEKNTVYLQMNSLKPEDTAVYYCNADYAGWGEYDYCGQGTQVTVSS | low polyreactivity
31 | QVQLVESGGGLVQAGGRLRLSCAASGLIFDDYAMGWYRQAPGKERALVAAIDWGGGSTYYADSVKGRFTISRDNAKNTVYLQMNSLTPEHTAVYYCAADSYFSYRYNYWGQGTQVTVSS | low polyreactivity
32 | QVQLVESGGGLVQAGGRLRLSCAASGLTFGRYAMGWYRQAPGKERELVAVINGSGGNTYYADSVKGRFTISRDNAKNTVYLQMNSLKPEDTAVYYCAARRTVQYTLYYYPDYNYWGQGTQVTVSS | low polyreactivity
33 | QVQLVESGGGLVQAGGRLRLSCAASGLTYTRYTMGWYRPAPGKERELVAAITSSGGSTYYADSVKGRFTISRDNAKNTVFLQMNSLKPEDTAVYFCAARYPGTRGDGYWGQGTQVTVSS | high polyreactivity
34 | QVQLVESGGGLVQAGGRLRLSCAASGNIFYPNAMGWYRQAPGKERELVAAISSSGGSTYYADSVKGRFTISRDNAKNTVYLQMNSLKPEDTAVYYCAKDRSYAYYWWPYPTGYDYWGQGTQVTVSS | low polyreactivity
35 | QVQLVESGGGLVQAGGRLRLSCAASGRIFGWIAMGWSRQAPGKDRELVAAISADGNTYSADSVKGRFTISRDNAKNTVYVQKNSLKPEDTAVSYCAAESWSADFSWYDYWGQGTQVTVSS | high polyreactivity
36 | QVQLVESGGGLVQAGGRLRLSCAASGRIFPYYAMGWYRQAPGKEREFVAAITSSGGSTYYADSVKGRFTISRDNAKYTVYLQMNSLIPEDSAVYYCFAVRHFGLYAGRPYDYWGQGTQVTVSS | low polyreactivity
37 | QVQLVESGGGLVQAGGRLRLSCAASGRIFSQYSMGWYRQAPGKERELVAAISSRGGRTYYADSVKGRFTFSRDNAKNTVYLQMNSLKPEDTAVYYCAAYVYPWGRDYWGQGTQVTVSS | high polyreactivity
38 | QVQLVESGGGLVQAGGRLRLSCAASGRIFSYNAMGWYRQAPGKERELVAGITSGGRTYYADSVKGRFTISRDNAKNTVYLQMNSLKPEDTAVYYCAARYVPARTRYYYWGQGTQVTVSS | high polyreactivity
39 | QVQLVESGGGLVQAGGRLRLSCAASGRIFVHNAMGWYRQAPGKERELVAAISQNGGRTYYADSVKGRFTISRDNAKNTVYLQLNSLKPEDTAVYYCAAGQARAGLIGGYWGQGTQVTVSS | high polyreactivity
40 | QVQLVESGGGLVQAGGRLRLSCAASGRIFVIKSMGWYRQAPAKERELVAAISKRGGSTYYADSVKGRFTISRDNAKNTVYLQMNSLKPEDTAVYYCAARFKTTGYDYWGQGTQVTVSS | high polyreactivity
41 | QVQLVESGGGLVQAGGRLRLSCAASGRIFVYNAMGWYRQAPGKERELVAAINYRGTRTYYADSVKGRFTISRDNAKNTVYLQLNSLKPEDTAVYYCATYLVTGGGLNVRYDYWGQGTQVTVSS | high polyreactivity
42 | QVQLVESGGGLVQAGGRLRLSCAASGRTFAFYTMGWYRQAPGKEREFVAAISWSGGSTHYADSVKGRFTISRDNAKNTVYLQMNSLKPEDTAVYYCDAGPFYRFTDGRYKTLDYWGQGTQVTVSS | high polyreactivity
43 | QVQLVESGGGLVQAGGRLRLSCAASGRTFDTNAMGWYRQAPGKQRELVAVITARGGNTSYADSVKGRFTISRDYAKNTVYLLMNRLKPEDTAVYLCAARVYRAPWTYVEGNYWGQGTQVTVSS | low polyreactivity
